According to US20220372084A1 (MJCELL BIO, published 2022):

Target: PA63 ligand (truncated 63 kDa portion of anthrax protective antigen), reagent conjugated with FITC (Bacillus anthracis, UniProt P13423 197-764)
Test: flow cytometry, FITC-conjugated PA63 on cell lines expressing ANTXR1 and ANTXR2

B1: ANTXR1 (anthrax toxin receptor 1) (receptor)
chain: not shown
notes: whole, on cells
  binding result: binds
